Data reported in PMC5342261, “Boosting of HIV envelope CD4 binding site antibodies with long variable heavy third complementarity determining region in the randomized double blind RV305 HIV-1 vaccine trial” (PLoS Pathogens, 2017).

B1: DH576 Unmutated Common Ancestor (UCA) (antibody, V domains shown)
VH: QVQLVESGGGVVQPGRSLRLSCAASGFTFSSYGMHWVRQAPGKGLEWVAVISYDGSNKYYADSVKGRFTISRDNSKNTLYLQMNSLRAEDTAVYYCARDRARSSGYFGGIYYYYYGMDVWGQGTTVTVSS
VL: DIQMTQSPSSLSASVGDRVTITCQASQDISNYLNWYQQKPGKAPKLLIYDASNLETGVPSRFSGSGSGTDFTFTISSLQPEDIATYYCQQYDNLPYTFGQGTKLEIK
notes: also called DH576 UCA; UCA of DH576; source: recombinantly expressed
B2: VRC01 (antibody, V domains shown)
VH: QVQLVQSGGQMKKPGESMRISCRASGYEFIDCTLNWIRLAPGKRPEWMGWLKPRGGAVNYARPLQGRVTMTRDVYSDTAFLELRSLTVDDTAVYFCTRGKNCDYNWDFEHWGRGTPVIVSS
VL: EIVLTQSPGTLSLSPGETAIISCRTSQYGSLAWYQQRPGQAPRLVIYSGSTRAAGIPDRFSGSRWGPDYNLTISNLESGDFGVYYCQQYEFFGQGTKVQVD
notes: also called CD4 bs bnAb VRC01

How the values were obtained:
AE.A244gp120 [1] = molecular target: AE.A244gp120 (HIV-1); assay: SPR; conditions: both partners purified
AE.A244gp120 [2] = molecular target: AE.A244gp120 (HIV-1); assay: ELISA; blocking ELISA; AE.A244gp120 on the plate; mAbs diluted 3-fold from 100 ug/mL added for 1 h, wash, biotinylated VRC01 or CH31 for 1 h, streptavidin-HRP; conditions: both partners purified

| Binder | binding result (AE.A244gp120 [1]) | binding result (AE.A244gp120 [2]) |
| --- | --- | --- |
| B1 | binds |  |
| B2 |  | binds |
